This note sets out measurements from patent US20130266574A1 (Regeneron, published 2013).

For test [1], the target named is T1, amino acid residues 26-148 of human ANGPTL4 fused in-line to mouse IgG2a (hANGPTL4-mFc) (human).
T1 construct: contains the N-terminal coiled-coil region
T1 chain: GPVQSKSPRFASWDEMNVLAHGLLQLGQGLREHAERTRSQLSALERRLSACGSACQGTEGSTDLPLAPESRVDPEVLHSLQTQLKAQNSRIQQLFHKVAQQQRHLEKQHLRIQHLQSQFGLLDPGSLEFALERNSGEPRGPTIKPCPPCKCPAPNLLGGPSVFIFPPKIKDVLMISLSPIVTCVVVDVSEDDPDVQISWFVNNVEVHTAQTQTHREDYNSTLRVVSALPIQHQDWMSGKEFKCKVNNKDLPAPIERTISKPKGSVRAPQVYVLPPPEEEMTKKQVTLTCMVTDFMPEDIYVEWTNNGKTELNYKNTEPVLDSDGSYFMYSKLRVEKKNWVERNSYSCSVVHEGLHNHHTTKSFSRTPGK
The test is described as follows: SPR (Biacore T100), hANGPTL4-mFc captured by anti-mouse IgG, antibody injected, 37° C. On the procedure:
(§1) Antigen-antibody binding and dissociation were monitored in real time at 25° C. and 37° C. Kinetic analysis was performed to calculate KD and half-life of antigen/antibody complex dissociation.

For test [2], the target named is T1, amino acid residues 26-148 of human …. The test is described as follows: SPR (Biacore T100), hANGPTL4-mFc captured by anti-mouse IgG, antibody injected, 25° C. Here is the method:
as §1
A general note: Surface plasmon resonance follows binding to a sensor surface in real time, without labels.

The target is the same in test [3]. In words: cell-based or functional assay.

B1: H1H283P (antibody, V domains shown)
VH: EVQLVESGGGLVQPGGSLRLSCAASGFTFSSYDMHWVRQVAGKGLEWVSAIGTAGDTYYPVSVKGRFTISRENAKNSLYLHMNSLRAGDTAVYFCARGDSRNYYVGDYFDYWGQGTLVTVSS
VL: DIQMTQSPSTLSASVGDRVTITCRASQSISRWLAWYQQKPGKAPKVLIYKASNLESGVPSRFSGSGSGTEFTLTISSLQPDDFATYYCQQYNSYSRTFGQGTKVEIK
notes: Fully human antibody, H1H prefix (human IgG1)
In general, Kd refers to the concentration at which binding is half-saturated. Turning to B1, the Kd in test [1] came to 1360 pM; in test [2], 130 pM. Further, the t1/2 in test [1] was determined as 0.2 h; in test [2] it was 1.98 h.

B2: H1H291P (antibody, V domains shown)
VH: EVQLVESGGGLVQPGGSLRLSCAASGFTFSTYDMHWVRQGLGKGLEWVSAIGSAGDTYYPGSVKGRFTISRDNAKSSLFLHMNSLRAGDTALYYCARGDSRNYFVGDYFDYWGQGTLVTVSS
VL: DIQMTQSPSTLSASIGDRVTITCRASQSISSWLAWYQQKPGKAPKVLIYKASSLEAGVPSRFSGSGSGTEFTLTISSLQPDDFASYYCQQYSSYSRTFGQGTKVEIK
notes: as for B1
Consider B2, for which the figures for the Kd in test [1] and in test [2] were 178 pM and 87.6 pM, respectively. The t1/2 in test [1] was 2.03 h; in test [2], 5.05 h.

B3: H1H644P (antibody, V domains shown)
VH: EVQLVESGGGLVQPGGSLRLSCAASGFTFSSYDMHWVRQVAGKGLEWVSAIGTAGDTYYPVSVKGRFTISRENAKNSLYLHMNSLRAGDTAVYYCARGDSRNYYVGDYFDYWGQGTLVTVSS
VL: DIQMTQSPSTLSASVGDRVTITCRASQSISRWLAWYQQKPGKAPKVLIYKASNLESGVPSRFSGSGSGTEFTLTISSLQPDDFATYYCQQYNTYSRTFGQGTKVEIK
notes: as for B1
With B3, in test [1], the Kd is 3000 pM and the t1/2 amounted to 0.1 h. Also, in test [2], binding was characterised by a dissociation constant (Kd) of 111 pM and the t1/2 turned out to be 2.4 h.

B4: H1H638P (antibody, V domains shown)
VH: EVQLVESGGGLVQPGGSLRLSCVASGFTFSSYDMHWVRQVAGKGLEWVAAIGTAGDTYYPVSVKGRFTISRENAKNSLSLHMNSLRAGDTAVYYCARGDSRNYYVGDYFDYWGQGTLVTVSS
VL: DIQMTQSPSTLSASVGDRVTITCRASQSISRWLAWYQQKPGKAPKVLIYKASSLKSGVPSRFSGSGSGTEFTLTISSLQSDDFATYYCQQYNSYSRTFGQGTKVEIK
notes: as for B1
In test [1], B4 had a Kd of 299 pM and a t1/2 of 0.8 h. In test [2], this molecule gave a Kd of 193 pM and a t1/2 of 1.42 h.

B5: H1H295P (antibody, V domains shown)
VH: EVQLVESGGGLVQPGGSLRLSCAASGFTFSTYDMHWVRQAPGKGLEWVSAIGSAGDTYYPGSVKGRFTISRDNAKSSLFLQMNSLRAGDTALYYCARGDSRNYFVGDYFDYWGQGTLVTVSS
VL: DIQMTQSPSTLSASVGDRVTITCRASQSIGTWLAWYQQKPGKAPKILIYKASSLEGGVPSRFSGSGSGTEFTLTISSLQPDDFANYYCQQYNSFYRTFGQGTKVEIK
notes: as for B1
As for B5, in test [1], the Kd was determined as 2620 pM and the t1/2 was 0.167 h. For the same molecule, in test [2], the Kd stood at 30.7 pM and the t1/2 worked out at 14.6 h.

B6: H1H257P (antibody, V domains shown)
VH: EVQLVESGGGLVQPGGSLRLSCAASGFTFSSYDMHWVRQVAGKGLEWVSAIGTAGDTYYPVSVKGRFTISRENAKNSLYLHMNSLRAGDTAVYFCARGDSRNYYVGDYFDYWGQGTLVTVSS
VL: DIQMTQSPSTLSASVGDRVTITCRASQSISRWLAWYQQKPGKAPKVLIYQASNLESGVPSRFSGSGSGTEFTLTISSLQPDDFATYYCQQYDSYSRAFGRGTKVEIK
notes: Fully human antibody; the H1H prefix stands for human IgG1 (said outright only for H1H268P and H1H284P)
In test [1], B6 registered a Kd of 238 pM and a t1/2 of 1.05 h. In test [2], this molecule had a Kd of 201 pM and a t1/2 of 1.52 h. In addition, the “% Inhibition of hANGPTL4 Activity (LPL lipase test), hANGPTL4-mFc (2 nM)” value in test [3] turned out to be 16%.
